Assay results published in patent US7071384B2, “Methods for commercial production of heterologous laccase in plant tissue and extraction of the laccase from plant seed” (Genencor International, Inc., priority 1997, dated 2006).

Key:
[1] = rGUS activity after extraction treatments (hexane defatting; SDS/ME buffer); assay type: physicochemical
Method: A portion of the germ sample prepared by the degermination process was defatted by using a Soxhlet apparatus. Forty grams of full-fat germ were extracted with 300 ml of hexane for five hours, and then air-dried at ambient temperature to remove the hexane.
All samples (flaked kernels, full-fat germ and defatted germ) were ground using a coffee grinder before protein extraction. The samples were extracted at 1:4 or 1:10 solid-to-liquid ratio with 50 mM NaPi buffer of pH 7.5. The extraction was carried out for 15 minutes at ambient temperature by using a magnetic stirrer for mixing less than 50-ml and a paddle mixer for greater than 50-ml volumes. After stirring, the suspension was centrifuged at 26,000 g for 25 min at 0° C., and then filtered through a 4-layer of cheesecloth. The extract was assayed for GUS activity (Hood et al., supra) and protein (Jefferson, R. A.; Wilson, K. J. (1991). In The GUS Gene Fusion system. In “Plant Molecular Biology Manual”, Vol. 1, B14, (S. B. Gelven, R. A. Schilperoort and D. P. S. Verma, eds.). Kluwer Academic Publisher, Dordrecht, Belgium. pp.1–33).
To determine whether a complete extraction of rGUS from corn kernels, full-fat germ and defatted germ was achieved, the remaining solids were stained with X-Gluc. […] The Western blot analysis of the spent solids confirmed the presence of unextracted rGUS. […]

[2] = Storage stability of rGUS in flaked corn kernels; assay type: physicochemical
Method: Dry corn kernels (12% moisture, 500 g per batch) were cracked using a roller mill (Ferrel-Ross, Oklahoma City, Okla.), then flaked to 0.3 mm thickness using Roskamp flaking rolls (Model K, Roskamp Mfg., Inc., Waterloo, Iowa.). Seven 500-gram batches of flaked corn kernels were placed in zip-lock bags and stored at each of four different temperatures for up to 95 days. The storage stability study was performed in triplicate; three 50-g samples per time and per temperature. To determine the activity of GUS, a 20-g sample was taken from each of the three 50-g bags at the specified time and extracted with 200 ml of 20 mM Tris-HCl pH 7.9 containing 500 mM NaCl and 1 mM CaCl2. Extraction was carried out using a paddle mixer at ambient temperature for 30 min.

[3] = Large-scale custom milling of transgenic corn, rGUS activity retention; assay type: physicochemical; conditions: 1,000 kg corn milled, less than 1 min at 90° C., bagged at about 50° C., 2 h at 30° C., overnight at 10° C.
Method: The heat stability results obtained in the laboratory were validated on a large scale. During the processing of 1,000 kg of transgenic corn in a custom-milling plant located in Grinnell, Iowa, the corn was exposed for a short time (less than 1 min) to 90° C. The milled corn was bagged at approximately 50° C., transported at ambient temperature (30° C.) for two hours to Iowa State University, and then stored overnight at 10° C. before the rGUS activity was determined.

[4] = Heat stability of rGUS in whole corn kernels; assay type: physicochemical
[5] = rGUS specific activity after three-step chromatography purification; assay type: biochemical
Source text: Distribution of rGUS in the Corn Kernel Tissue Corn kernels (100 g) were soaked in deionized water for two days. In two days separation of germ, hull and endosperm was completed and soaked for 2–3 days. The first half was soaked for 2 days, and the other half for 3 days. The hulls, endosperm, and germ were manually separated. Each fraction was air-dried at ambient temperature and ground with a coffee grinder (Salton/Maxim Housewares Inc., Mont. Prospect,Ill.). rGUS activity and the moisture content of each ground sample were determined. rGUS activity was determined using the assay described by Jefferson and Wilson (Jefferson, R. A.; Wilson, K. J. (1991). In The GUS Gene Fusion system. In “Plant Molecular Biology Manual”, Vol. 1, B14, (S. B. Gelven, R. A. Schilperoort and D. P. S. Verma, eds.). Kluwer Academic Publisher, Dordrecht, Belgium. pp.1–33). One unit (U) of rGUS activity was defined as the amount of enzyme that converts one nmole of p-nitrophenyl β-D-glucuronide per minute at pH 7.0 and 37° C. Storage and Heat Stability
Purification Recombinant GUS was purified from ground kernels, full-fat germ and defatted germ using a three-step chromatography. Ground corn kernels (75 g), full-fat germ (7.5 g), and defatted germ (7.5 g) samples were extracted with 50 mM NaPi buffer pH 7.5 (buffer A) at 1:4 or 1:10 solid-to-liquid ratio as described in the previous section. Fifteen ml of DEAE-Toyopearl (Supelco, Bellefonte, Pa.) resin in buffer A were added to the centrifuged and filtered extract to adsorb (capture) rGUS. The slurry was mixed with a magnetic stirrer for 15 min at ambient temperature, filtered through a funnel-supported No. 1 filter paper, and washed with 400 ml of buffer A. The washed DEAE resin was packed into a glass column with an inside diameter of 1.5 cm. The adsorbed rGUS was eluted with 0.3 M NaCl in buffer A. The fractions containing rGUS activity were combined, ammoniumsufate (AS) was added to a final concentration of 1 M, and the solution was filtered through a 0.45 μfilter. […]

B1: rGUS: recombinant β-glucuronidase produced in transgenic corn kernels (protein)
chain: MLRPVETPTREIKKLDGLWAFSLDRENCGIDQRWWESALQESRAIAVPGSFNDQFADADIRNYAGNVWYQREVFIPKGWAGQRIVLRFDAVTHYGKVWVNNQEVMEHQGGYTPFEADVTPYVIAGKSVRITVCVNNELNWQTIPPGMVITDENGKKKQSYFHDFFNYAGIHRSVMLYTTPNTWVDDITVVTHVAQDCNHASVDWQVVANGDVSVELRDADQQVVATGQGTSGTLQVVNPHLWQPGEGYLYELCVTAKSQTECDIYPLRVGIRSVAVKGEQFLINHKPFYFTGFGRHEDADLRGKGFDNVLMVHDHALMDWIGANSYRTSHYPYAEEMLDWADEHGIVVIDETAAVGFNLSLGIGFEAGNKPKELYSEEAVNGETQQAHLQAIKELIARDKNHPSVVMWSIANEPDTRPQGAREYFAPLAEATRKLDPTRPITCVNVMFCDAHTDTISDLFDVLCLNRYYGWYVQSGDLETAEKVLEKELLAWQEKLHQPIIITEYGVDTLAGLHSMYTDMWSEEYQCAWLDMYHRVFDRVSAVVGEQVWNFADFATSQGILRVGGNKKGIFTRDRKPKSAAFLLQKRWTGMNFGEKPQQGGKQ
rGUS activity after extraction with detergent ([1]; 1% (v/v) SDS and 2% (v/v) ME in extraction buffer): inactive
rGUS activity after corn oil extraction ([1]; germ defatted with hexane (˜60° C.)): did not affect the activity of rGUS
loss of rGUS activity ([2]; flaked kernels at 10° C. for up to 3 months): 23%
loss of initial GUS activity ([2]; flaked kernels at 25° C. after three weeks (sample spoilage)): 13%
loss of initial rGUS activity ([2]; flaked kernels at 37° C. for one week): 23%
rGUS activity loss ([2]; flaked kernels at −29, 10, or 25° C. for up to 2 weeks): no significant loss of rGUS activity
loss of rGUS activity ([2]; flaked kernels at −29° C. for up to 3 months): 14%
rGUS activity loss [3]: no loss of rGUS activity
rGUS activity after heating ([4]; kernels, 50° C. for up to six days): fully retained
loss of initial rGUS activity ([4]; kernels, 70° C. for 8 hours): 60%
rGUS activity after heating ([4]; kernels, 70° C. for one hour): did not significantly affect rGUS activity
residual rGUS activity ([4]; kernels, 90° C. for one hour): No residual rGUS activity
residual rGUS activity ([4]; kernels, 125° C. for 10 minutes): No residual rGUS activity
rGUS activity after heating ([4]; whole kernels, 50° C. for up to eight hours): did not affect rGUS activity
Specification activity ([5]; purified from defatted germ, solid-to-liquid ratio 1:10): 36,000 U/mg
Specification activity ([5]; purified from flaked corn, solid-to-liquid ratio 1:4): 36,000 U/mg
Specification activity ([5]; purified from full-fat germ, solid-to-liquid ratio 1:10): 45,000 U/mg
